Our source for the activity (fold luminescence enhancement) values is US20170145472.

The target in this data set is T1, HCV NS3 helicase (Hepatitis C virus) (UniProt P26663).
T1 sequence: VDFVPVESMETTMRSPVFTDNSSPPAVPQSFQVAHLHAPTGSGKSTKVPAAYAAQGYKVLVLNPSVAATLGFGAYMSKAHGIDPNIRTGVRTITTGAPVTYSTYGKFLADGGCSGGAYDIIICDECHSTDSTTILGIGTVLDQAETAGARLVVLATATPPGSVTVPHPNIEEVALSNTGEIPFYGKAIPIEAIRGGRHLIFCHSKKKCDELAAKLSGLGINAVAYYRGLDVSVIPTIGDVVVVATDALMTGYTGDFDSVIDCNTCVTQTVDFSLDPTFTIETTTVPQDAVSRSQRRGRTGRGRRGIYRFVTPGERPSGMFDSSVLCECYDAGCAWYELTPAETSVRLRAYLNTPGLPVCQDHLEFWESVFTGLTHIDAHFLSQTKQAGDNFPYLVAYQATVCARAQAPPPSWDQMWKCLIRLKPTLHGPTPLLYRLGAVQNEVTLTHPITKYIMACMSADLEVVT

For the sequence “GTGGGTAGGGCGGGTTGGTGGCGACGGCAGCGAGGCAGAGGAGCAGAGGGAGCA / GCCTCGCTGCCGTCGCCACCAACCCGCCC [ON1/ON2 duplex substrate]”, the activity (fold luminescence enhancement) came out at 4.5.
